From US20100166764A1 (Eli Lilly, published 2010)
Residue numbers refer to the chain shown, from its start. Names and notes keep the numbering of the source.

T1: mature myostatin (human, murine, rat, chicken, turkey, …, UniProt O08689 268-376 (mouse entry))
T1 construct: also called growth differentiation factor-8; GDF-8
T1 sequence: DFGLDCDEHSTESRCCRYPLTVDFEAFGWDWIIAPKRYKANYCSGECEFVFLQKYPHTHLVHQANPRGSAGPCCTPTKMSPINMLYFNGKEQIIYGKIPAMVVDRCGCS

B1: C12 Fab with the Asn residue in CDRL3 replaced with alanine (Fab, V domains shown)
VH: QLQLQESGPGLVKPSETLSLTCTVSGFSLRKVGSSVSWIRQPPGKGLEWIGHIYWDDDKRLNPSLRNRVTISVDTSKNQFSLKLSSVTAADTAVYYCARRAITTVIGGGTFDLWGQGTLVTVSS
VL: DIQMTQSPSSLSASVGDRVTITCSASSSISYMHWYQQKPGKAPKLLIYDTSKLARGVPSRFSGSGSGTDFTLTISSLQPEDFATYYCQQWYLAPLTFGGGTKVEIKR
notes: Periprep Fab
B2: C12 Fab with the Asn residue in CDRL3 replaced with phenylalanine (Fab, V domains shown)
VH: B1 VH
VL: B1 VL with A93F
notes: Periprep Fab
B3: C12 Fab with the Asn residue in CDRL3 replaced with leucine (Fab, V domains shown)
VH: B1 VH
VL: B1 VL with A93L
notes: Periprep Fab
B4: C12 Fab with the Asn residue in CDRL3 replaced with tyrosine (Fab, V domains shown)
VH: B1 VH
VL: B1 VL with A93Y
notes: Periprep Fab
B5: C12 Fab with the Asn residue in CDRL3 replaced with glycine (Fab, V domains shown)
VH: B1 VH
VL: B1 VL with A93G
notes: Periprep Fab
B6: C12 Fab with the Asn residue in CDRL3 replaced with methionine (Fab, V domains shown)
VH: B1 VH
VL: B1 VL with A93M
notes: Periprep Fab
B7: C12 Fab with the Asn residue in CDRL3 replaced with threonine (Fab, V domains shown)
VH: B1 VH
VL: B1 VL with A93T
notes: Periprep Fab
B8: C12 Fab with the Asn residue in CDRL3 replaced with glutamine (Fab, V domains shown)
VH: B1 VH
VL: B1 VL with A93Q
notes: Periprep Fab
B9: C12 Fab with the Asn residue in CDRL3 replaced with cysteine (Fab, V domains shown)
VH: B1 VH
VL: B1 VL with A93C
notes: Periprep Fab
B10: C12 Fab with the Asn residue in CDRL3 replaced with valine (Fab, V domains shown)
VH: B1 VH
VL: B1 VL with A93V
notes: Periprep Fab
B11: C12 Fab with the Asn residue in CDRL3 replaced with tryptophan (Fab, V domains shown)
VH: B1 VH
VL: B1 VL with A93W
notes: Periprep Fab
B12: C12 Fab with the Asn residue in CDRL3 replaced with serine (Fab, V domains shown)
VH: B1 VH
VL: B1 VL with A93S
notes: Periprep Fab
B13: C12 Fab with the Asn residue in CDRL3 replaced with glutamic acid (Fab, V domains shown)
VH: B1 VH
VL: B1 VL with A93E
notes: Periprep Fab
B14: C12 Fab with the Asn residue in CDRL3 replaced with proline (Fab, V domains shown)
VH: B1 VH
VL: B1 VL with A93P
notes: Periprep Fab
B15: C12 Fab with the Asn residue in CDRL3 replaced with aspartic acid (Fab, V domains shown)
VH: B1 VH
VL: B1 VL with A93D
notes: Periprep Fab
B16: C12 Fab with the Asn residue in CDRL3 replaced with isoleucine (Fab, V domains shown)
VH: B1 VH
VL: B1 VL with A93I
notes: Periprep Fab
B17: C12 Fab with the Asn residue in CDRL3 replaced with lysine (Fab, V domains shown)
VH: B1 VH
VL: B1 VL with A93K
notes: Periprep Fab
B18: Mab C12 (antibody, V domains shown)
VH: B1 VH
VL: B1 VL with A93N
B19: C12-N93H (antibody, human IgG4 S228P, kappa, V domains shown)
VH: B1 VH
VL: B1 VL with A93H
B20: C12 Fab with the Asn residue in CDRL3 replaced with R (Fab, V domains shown)
VH: B1 VH
VL: B1 VL with A93R
notes: Periprep Fab

target: T1, mature myostatin; test: ELISA, myostatin coated, periprep Fab titrated, anti-human-kappa-AP
Protocol: (§1) ELISA plates are coated with myostatin diluted to 4 ug/ml in carbonate buffer (50 mM NaHCO₃ pH 8.3) and 50 μL added per well. Plates are covered with sealing tape and incubate overnight at 4° C. Thereafter, plates (Greiner U-bottom plates Cat #650061) are washed three times with PBS-T (0.1% Tween-20) using an automatic plate washer. 200 μL of blocking buffer (PBS+1% BSA+0.1% Tween-20) is added to every well and incubated at room temperature for one hour. Plates are washed and 50 μl of sample added per well. Samples are composed of periprep Fabs diluted in PBST/BSA starting at a 1:3 dilution and then serially diluted in half-log steps. Plates are washed and 50 μL of secondary antibody solution (1:2000 goat anti-human-kappa-AP Southern Biotech Cat # 2060-04 in PBST/BSA) is added to every well. Following an additional wash step, 100 μL of AP substrate is added per well and incubates at room temperature for about 10 minutes. The absorbance or OD at 560 nm is read. C12 or 510C2 is included on each ELISA plate as an affinity reference standard. The concentration of Fabs is determined by a quantitative ELISA using an anti-Fd antibody (Sheep anti-Fd Biodesign) to capture protein and goat anti-human-kappa-AP (Southern Biotech) to detect. A purified Fab standard is run on each plate to generate a standard curve for the concentration determinations.

Q: Does B1 bind?
A: Result: binds

Q: Does B2 bind?
A: Result: binds

Q: Does B3 bind?
A: Result: binds

Q: Does B4 bind?
A: Result: binds

Q: Does B5 bind?
A: Result: binds

Q: Does B6 bind?
A: Result: binds

Q: Does B7 bind?
A: Result: binds

Q: Does B8 bind?
A: Result: binds

Q: Does B9 bind?
A: Result: binds

Q: Does B10 bind?
A: Result: binds

Q: Does B11 bind?
A: Result: binds

Q: Does B12 bind?
A: Result: binds

Q: Does B13 bind?
A: Result: binds

Q: Does B14 bind?
A: Result: binds

Q: Does B15 bind?
A: Result: binds

Q: Does B16 bind?
A: Result: binds

Q: Does B17 bind?
A: Result: binds

target: T1, mature myostatin; test: cell-based or functional assay

Q: B18 was tested. Which “IC50 in the myostatin/SBE reporter assay (luciferase, HEK293 EBNA cells)” value did it give?
A: The value was about 9.59 nM.

Q: B19 was tested. Which “IC50 in the myostatin/SBE reporter assay (luciferase, HEK293 EBNA cells)” value did it give?
A: The value was about 7.03 nM.

target: T1, mature myostatin; test: ELISA on plate-coated myostatin, periprep Fab in serial dilution, detection with goat anti-human-kappa-AP, O.D. against Fab concentration (ng/ml)
Protocol: as §1

Q: Does B20 bind?
A: Result: binds
